Residue numbers refer to the chain shown, from its start. Numbers in names are those of the source. Each block holds one molecule with its values, some of them ahead of it.
Assays:
CD39 = molecular target: T1, CD39 (Homo sapiens, UniProt P49961); assay: Inhibition of CD39 enzymatic activity in Ramos cells, AMP production by Maldi TOF mass spectrometry; assay type: cell-based
T1 construct: cells that endogenously express CD39 at their surface, e.g. regulatory T (TReg) cells, B cells, cancer cells, lymphoma cells (e.g. Ramos cells); endogenous in cells; host or cells: Ramos human lymphoma cells
T1 sequence (P49961 1-510): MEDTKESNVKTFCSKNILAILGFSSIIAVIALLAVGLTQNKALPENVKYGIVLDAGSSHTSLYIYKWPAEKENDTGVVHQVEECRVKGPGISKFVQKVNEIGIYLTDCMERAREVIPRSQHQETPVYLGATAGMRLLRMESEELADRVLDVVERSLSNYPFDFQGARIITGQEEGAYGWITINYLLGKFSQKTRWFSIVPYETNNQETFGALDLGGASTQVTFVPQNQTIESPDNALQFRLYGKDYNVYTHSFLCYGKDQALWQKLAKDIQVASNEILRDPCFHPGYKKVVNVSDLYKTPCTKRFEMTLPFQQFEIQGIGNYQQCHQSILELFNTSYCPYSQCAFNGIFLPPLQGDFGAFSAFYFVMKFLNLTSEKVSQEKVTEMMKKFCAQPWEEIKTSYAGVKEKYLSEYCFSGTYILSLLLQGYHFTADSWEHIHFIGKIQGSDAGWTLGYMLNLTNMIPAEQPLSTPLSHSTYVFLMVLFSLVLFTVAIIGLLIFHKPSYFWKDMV
Procedure: The inhibition of CD39 enzymatic activity by antibodies was evaluated by Maldi TOF mass spectrometry (production of AMP). This assay represents an assay that is relatively insensitive to down-modulation of CD39 expression. […] After washes, cells were incubated with anti-CD39 antibodies, isotype control, or ARL and 50 μM ATP for 30 minutes at 4° C. in PBS. AMP generated is quantified in supernatants by Maldi TOP.
The inhibition of CD39 enzymatic activity by antibodies was evaluated by Maldi TOF mass spectrometry (production of AMP). Briefly, 10^5 Ramos human lymphoma cells were incubated overnight at 37° C. with anti-CD39 antibodies or a chemical CD39 inhibitor (ARL 100 μM). After washes, cells were incubated with anti-CD39 antibodies, isotype control, or ARL and 50 μM ATP for 30 minutes at 4° C. in PBS. AMP generated is quantified in supernatants by Maldi TOP. Antibodies were used at 33 nM and ARL at […].

[1] = molecular target: T2, CD39 mutant 15 (K87A, E100A, D107A) (human, UniProt P49961 1-510); assay: flow cytometry, HEK293T cells transfected with mutant 15
T2 construct: Transfected in HEK293T cells
T2 chain: T1 sequence (P49961 1-510) with K87A, E100A, D107A

[2] = molecular target: T3, Recombinant human CD39-L4 (NTPDase5, ENTPD5) (human, UniProt O75356 25-428); assay: ELISA on coated RechuCD39-L4, OD 450 nm [top panel CHS2-I-391]
T3 construct: Coated in ELISA
T3 sequence: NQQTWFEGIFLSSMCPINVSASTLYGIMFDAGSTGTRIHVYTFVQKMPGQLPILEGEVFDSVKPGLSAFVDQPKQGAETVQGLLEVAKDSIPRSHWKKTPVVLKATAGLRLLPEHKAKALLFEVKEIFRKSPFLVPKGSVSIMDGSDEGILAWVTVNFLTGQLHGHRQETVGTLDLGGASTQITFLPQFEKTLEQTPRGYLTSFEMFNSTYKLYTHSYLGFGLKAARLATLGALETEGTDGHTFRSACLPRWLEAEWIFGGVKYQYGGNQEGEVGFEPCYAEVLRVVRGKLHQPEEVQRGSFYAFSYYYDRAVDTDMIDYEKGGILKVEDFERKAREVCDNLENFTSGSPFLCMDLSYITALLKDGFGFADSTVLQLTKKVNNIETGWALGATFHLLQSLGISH
Procedure: (§1) Wells were washed in TBS Tween 20, and further saturated 2H at RT in TBS Blocking buffer. Dose range concentration of primary antibody was incubated in TBS blocking buffer for 2h at RT. Wells were washed in TBS Tween 20. […] Optical density was measured on Enspire at OD=450.

[3] = molecular target: T4, Recombinant human CD39-L2 (NTPDase6, ENTPD6) (human, UniProt O75354 61-484, limits assumed); assay: ELISA on coated RechuCD39-L2, OD 450 nm [top panel CHS2-I-391]
T4 construct: Coated in ELISA
T4 sequence: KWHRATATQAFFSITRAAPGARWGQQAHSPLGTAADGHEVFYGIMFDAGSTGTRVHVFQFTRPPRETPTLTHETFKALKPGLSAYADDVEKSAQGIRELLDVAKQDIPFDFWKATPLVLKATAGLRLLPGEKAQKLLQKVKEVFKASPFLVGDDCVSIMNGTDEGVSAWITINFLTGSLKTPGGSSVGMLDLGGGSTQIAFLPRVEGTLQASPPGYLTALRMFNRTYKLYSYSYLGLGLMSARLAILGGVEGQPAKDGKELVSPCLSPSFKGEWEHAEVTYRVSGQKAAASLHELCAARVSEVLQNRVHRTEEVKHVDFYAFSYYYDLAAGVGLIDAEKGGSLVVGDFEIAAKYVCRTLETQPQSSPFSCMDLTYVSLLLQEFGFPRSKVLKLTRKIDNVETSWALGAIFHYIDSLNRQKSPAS
Procedure: as §1

maximum inhibition achieved (CD39; Ramos cells, 50 μM ATP): 93.4% | EC50 (CD39; read-out: EC50 (inhibition of 50% of the enzymatic activity of CD39), 100,000 Ramos cells, 50 μM ATP, n=3): 1.2 nM
B1: I-392: anti-CD39 antibody, VH SEQ ID NO: 8 and VL SEQ ID NO: 9, chimeric human IgG1 with N297Q mutation (antibody, V domains shown)
VH: QIQLVQSGPEVKKPRETVKISCKASGYTFTHYGMNWVKQAPGKGLKWMGWINTYTGEPTYADDFKGRFAFSLEASASTAYLQINNLKNEDTATYFCARRRYEGNYVFYYFDYWGQGTTLTVSS
VL: DIQMTQSPASLSASVGETVTITCRASENIYSYFSWYQQKQGKSPQLLVYTAKTLAEGVPSRFSGSGSGTQFSLKINSLQPEDFGSYYCQHHYVTPYTFGGGTKLEIK
blocking CD39 enzymatic activity (CD39; Ramos cells, Example 6): very potent at blocking CD39 enzymatic activity

binding result [1]: binds | binding result [2]: no binding (tested: 50 ug/ml) | binding result [3]: no binding (tested: 50 ug/ml)
B2: Antibody I-391, Fc silent recombinant chimeric human IgG1 with heavy chain N297Q mutation (antibody, V domains shown)
VH: QIQLVQSGPELKKPGETVKISCKASGYTFRNYGMNWVKQAPGKGLKWMGWINTYTGEPTYADDFKGRFAFSLATSASTAYLQISNLKNEDTATYFCARKAYYGSNYYFDYWGQGTTLTVSS
VL: DIVMTQSHKFMSTSVGDRVSITCKASQDVSTAVAWYQQKPGQSPKLLIYSASYRYTGVPDRFTGSGSGTDFTFTISTVQAEDLAVYYCQQHYTTPPYTFGGGTKLEIKR

From patent US20190153113A1, “CD39 VASCULAR ISOFORM TARGETING AGENTS” (INNATE PHARMA, priority 2015, published 2019)
